# Reference: US20060292657A1, “Phex substrates and methods using same” (priority 2003, published 2006)
# What was measured:
# Test in all cases: Kinetic parameters for hydrolysis of internally quenched fluorogenic peptides by secPHEX
# Assay type in all cases: biochemical, human
# Conditions in all cases: other: 37° C., 10 mM Bis-Tris buffer pH 5.5, 150 mM NaCl
# [1] = substrate: CC(C)C[C@H](NC(=O)c1ccccc1N)C(=O)N[C@@H](CCC(=O)O)C(=O)N[C@@H](CC(C)C)C(=O)N[C@@H](CC(=O)O)C(=O)N[C@@H](CO)C(=O)N[C@@H](CCCNC(=N)N)C(=O)N[C@@H](CCC(N)=O)C(=O)NCCNc1ccc([N+](=O)[O-])cc1[N+](=O)[O-]
# Description: (§1) The human recombinant secPHEX was obtained following the procedure previously described (17, WO 00/50580). Purified secPHEX concentration was determined using the Bradford method (DC protein assay kit; Bio-Rad, Mississauga, ON, Canada). Membrane-bound recombinant human PHEX was expressed in LLC-PK1 cells (17, (WO 00/50580)) and membranes were prepared essentially as described by Guo et al. (34). Briefly, transfected cells resuspended in lysis buffer (150 mM NaCl, 20 mM Tris.HCl, pH 7.6) were disrupted by sonication. Cell debris were removed by centrifugation at 300 g for 15 min at 4 °C. Membranes were collected by centrifugation at 30,000 g for 50 min and solubilized for 2h with 1% n-dodecyl-β-D-maltoside in lysis buffer. Insoluble material was pelleted by centrifugation at 10,000 g for 15 min and protein concentrations of the supernatant determined using the Bradford method described above. PHEX amounts were evaluated by immunoblotting as described previously (17). NEP expression and purification were performed as described previously (36).
# (§2) The hydrolysis of the IQFPs, at 37° C., in 10 mM Bit-Tris buffer pH 5.5 (0.35 to 1.0 ml final volume) containing 150 mM NaCl, was continuously followed measuring the fluorescence at γem=420 nm and γex=320 nm in a Hitachi F-2000™ spectrofluorometer. The cuvefte containing the buffer and the substrate was placed in a thermostatically controlled cell compartment for 5 min before the addition of the enzyme and the increase in fluorescence with time was continuously recorded for 5-10 min. The enzyme concentration for initial rate determination was chosen at a level intended to hydrolyze less than 5% of the substrate present. The slope was converted into micromoles of substrate hydrolyzed per min based on a calibration curve obtained from complete hydrolysis of each peptide. The inner-filter effect was corrected using an empirical equation as previously described (43). The kinetic parameters Km and kcat were calculated by the non-linear regression data analysis Grafit program (42). The kcat/Km values were calculated as the ratio of these two determined parameters. The apparent second order rate constant kcat/Km (*kIt/Km) was determined under pseudo first-order conditions, where [S]<<Km. These determinations were performed in two different substrate concentrations and the errors were less than 5% for any obtained value.
# (§3) To determine the position of cleavage in peptides of the IQFPs combinatorial libraries, the products resulting from hydrolysis by secPHEX were submitted to N-terminal amino acid sequencing in a PPSQ-23protein sequencer (Shimadzu Tokyo, Japan). The scissile bonds in the IQFPs secPHEX substrates derived from PTHrP107-139, FGF-23and MEPE were determined by amino acid sequencing and by MALDI-TOF™ mass spectrometry (TofSpec-E™, Micromass, Manchester, U.K.) after isolation of the fragments resulting from the hydrolysis by secPHEX by analytical HPLC.
# (§4) The assays were performed at 37° C., in 10 mM Bis-Tris buffer pH 5.5, containing 150 mM NaCl. Measurements were made as described under the heading “Experimental Procedures” above. Cleavage sites are indicated as arrows (↓). The standard deviations of the kinetic constants were less than 5%.
# (§5) The assays were performed at 37° C., in 10 mM Bis-Tris buffer pH 5.5, containing 150 mM NaCl. Measurements were made as described under the heading “Experimental Procedures” above. Cleavage sites are indicated by arrows (↓). The standard deviations of the kinetic constants were less than 5%.
# (§6) The assays were. performed at 37° C., in 10 mM Bis-Tris buffer pH 5.5, containing 150 mM NaCl. Measurements were made as described under the heading “Experimental Procedures” above. Cleavage sites are indicated by arrows (↓). The standard deviations of the kinetic constants were less than 5%.
# (§7) The assays were performed at 37° C., in 10 mM Bis-Tris buffer pH 5.5, containing 150 mM NaCl. Measurements were made as described under “Experimental Procedures”. […]
# [2] = substrate: CC[C@H](C)[C@H](NC(=O)[C@H](CC(=O)O)NC(=O)[C@H](CC(N)=O)NC(=O)[C@H](CO)NC(=O)CNC(=O)c1ccccc1N)C(=O)N[C@@H](CCSC)C(=O)NCC(=O)N[C@@H](CCC(N)=O)C(=O)NCCNc1ccc([N+](=O)[O-])cc1[N+](=O)[O-]
# Description: as §1, §2, §3, §4, §5, §6, §7
# [3] = substrate: CC(C)C[C@H](NC(=O)[C@H](Cc1c[nH]cn1)NC(=O)[C@@H](NC(=O)c1ccccc1N)[C@@H](C)O)C(=O)N[C@@H](CC(=O)O)C(=O)N[C@H](C(=O)N[C@@H](CCCCN)C(=O)N[C@@H](CCCCN)C(=O)N[C@@H](CCC(N)=O)C(=O)NCCNc1ccc([N+](=O)[O-])cc1[N+](=O)[O-])[C@@H](C)O
# Description: as §1, §2, §3, §4, §5, §6, §7
# [4] = substrate: CC[C@H](C)[C@H](NC(=O)[C@H](CCC(=O)O)NC(=O)[C@H](CC(N)=O)NC(=O)[C@H](CC(=O)O)NC(=O)[C@H](CC(C)C)NC(=O)CNC(=O)[C@H](CCCNC(=N)N)NC(=O)c1ccccc1N)C(=O)N[C@@H](CCC(N)=O)C(=O)NCCNc1ccc([N+](=O)[O-])cc1[N+](=O)[O-]
# Description: as §1, §2, §3, §4, §5, §6, §7
# [5] = substrate: CC(C)C[C@H](NC(=O)[C@H](Cc1c[nH]cn1)NC(=O)[C@H](CC(=O)O)NC(=O)c1ccccc1N)C(=O)N[C@@H](CO)C(=O)N[C@@H](CC(=O)O)C(=O)N[C@H](C(=O)N[C@@H](CO)C(=O)N[C@H](C(=O)N[C@@H](CCC(N)=O)C(=O)NCCNc1ccc([N+](=O)[O-])cc1[N+](=O)[O-])[C@@H](C)O)[C@@H](C)O
# Description: as §1, §2, §3, §4, §5, §6, §7
protein,measurement,setting,value
"human recombinant secPHEX (Homo sapiens) (protein, pure soluble form of PHEX (secPHEX); made in house) SLQAKQEYCLKPECIEAAAAILSKVNLSVDPCDNFFRFACDGWISNNPIPEDMPSYGVYPWLRHNVDLKLKELLEKSISRRRDTEAIQKAKILYSSCMNEKAIEKADAKPLLHILRHSPFRWPVLESNIGPEGVWSERKFSLLQTLATFRGQYSNSVFIRLYVSPDDKASNEHILKLDQATLSLAVREDYLDNSTEAKSYRDALYKFMVDTAVLLGANSSRAEHDMKSVLRLEIKIAEIMIPHENRTSEAMYNKMNISELSAMIPQFDWLGYIKKVIDTRLYPHLKDISPSENVVVRVPQYFKDLFRILGSERKKTIANYLVWRMVYSRIPNLSRRFQYRWLEFSRVIQGTTTLLPQWDKCVNFIESALPYVVGKMFVDVYFQEDKKEMMEELVEGVRWAFIDMLEKENEWMDAGTKRKAKEKARAVLAKVGYPEFIMNDTHVNEDLKAIKFSEADYFGNVLQTRKYLAQSDFFWLRKAVPKTEWFTNPTTVNAFYSASTNQIRFPAGELQKPFFWGTEYPRSLSYGAIGVIVGHEFTHGFDNNGRKYDKNGNLDPWWSTESEEKFKEKTKCMINQYSNYYWKKAGLNVKGKRTLGENIADNGGLREAFRAYRKWINDRRQGLEEPLLPGITFTNNQLFFLSYAHVRCNSYRPEAAREQVQIGAHSPPQFRVNGAISNFEEFQKAFNCPPNSTMNRGMDSCRLW",Km,[1],0.9 µM
same,kcat,[1],0.05 s⁻¹
same,kcat/Km,[1],55500 M⁻¹ s⁻¹
same,Km,[2],13.0 µM
same,kcat,[2],0.01 s⁻¹
same,kcat/Km,[2],800 M⁻¹ s⁻¹
same,Km,[3],15.0 µM
same,kcat,[3],0.02 s⁻¹
same,kcat/Km,[3],1300 M⁻¹ s⁻¹
same,Km,[4],7.0 µM
same,kcat,[4],0.03 s⁻¹
same,kcat/Km,[4],4300 M⁻¹ s⁻¹
same,Km,[5],1.3 µM
same,kcat,[5],0.1 s⁻¹
same,kcat/Km,[5],77000 M⁻¹ s⁻¹
